The source of these data is PMC11662670, “Selective recognition of RNA G-quadruplex in vitro and in cells by L-aptamer–D-oligonucleotide conjugate”.

The data set concerns the target T1, DHX36 (UniProt Q9H2U1 1-1008).
T1 sequence: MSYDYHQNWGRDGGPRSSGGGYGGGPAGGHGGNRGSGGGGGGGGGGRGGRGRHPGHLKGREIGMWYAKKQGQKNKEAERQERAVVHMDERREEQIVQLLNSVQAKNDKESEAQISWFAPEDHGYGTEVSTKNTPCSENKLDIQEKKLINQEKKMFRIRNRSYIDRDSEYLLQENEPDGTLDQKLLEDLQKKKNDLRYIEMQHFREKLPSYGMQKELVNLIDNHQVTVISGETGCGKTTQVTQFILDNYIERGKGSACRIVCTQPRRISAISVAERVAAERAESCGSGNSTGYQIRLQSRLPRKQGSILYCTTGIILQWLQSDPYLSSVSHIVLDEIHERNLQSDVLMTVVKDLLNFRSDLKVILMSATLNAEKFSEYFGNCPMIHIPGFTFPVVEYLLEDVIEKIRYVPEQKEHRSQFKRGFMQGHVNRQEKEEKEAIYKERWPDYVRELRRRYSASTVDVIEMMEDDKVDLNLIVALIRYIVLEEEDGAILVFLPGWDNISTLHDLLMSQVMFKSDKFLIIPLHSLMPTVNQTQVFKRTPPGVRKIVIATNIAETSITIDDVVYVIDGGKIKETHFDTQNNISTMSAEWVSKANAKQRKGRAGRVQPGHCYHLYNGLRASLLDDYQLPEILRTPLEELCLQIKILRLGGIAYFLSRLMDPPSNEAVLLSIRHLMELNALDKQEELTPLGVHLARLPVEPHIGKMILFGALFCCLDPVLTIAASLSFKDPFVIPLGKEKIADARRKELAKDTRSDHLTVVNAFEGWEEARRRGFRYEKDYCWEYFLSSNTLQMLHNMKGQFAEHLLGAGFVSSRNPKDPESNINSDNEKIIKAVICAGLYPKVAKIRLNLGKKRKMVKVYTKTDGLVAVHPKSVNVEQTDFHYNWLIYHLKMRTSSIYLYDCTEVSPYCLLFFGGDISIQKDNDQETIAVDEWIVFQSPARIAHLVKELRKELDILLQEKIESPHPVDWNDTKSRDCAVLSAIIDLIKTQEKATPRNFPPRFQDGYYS
Nature of the data set: EMSA; EMSA: 150 mM KCl, 1 mM MgCl2, 25 mM Tris-HCl pH 7.5, 8% sucrose, 30 min at 37 C; gel at 4 C. Pull-down: same buffer without sucrose, 4 C. The note with it: protein: commercial; label: 5' HEX; intramolecular rG4 with 3' single-stranded flank. (A gel shift assay detects complexes by their altered migration in electrophoresis.)

For GGGGCGGGUGGGGAGGGGUGCUCUGCUGGUCUUCAAUU (structured_RNA) [HEX_APP rG4 wt region], the dissociation constant (Kd) was 51.3 ± 10.1 nM.

In general, Kd refers to the equilibrium constant for the complex coming apart. Read a high Kd as a looser complex.
